This experiment deals with CD99 on RD-ES and SK-ES-1 Ewing sarcoma cells (UniProt P14209). The experiment can be described thus: not stated (given with the antibody's description, refers to FIG. 57).

Usually Kd stands for a measure of binding affinity in units of concentration. A low value points to tighter binding. αCD99 antibody (clone: 12E7) displayed a Kd of 10 nM.
